In patent publication US20150299277A1, “AGENT FOR TREATING OR PREVENTING SYSTEMIC INFLAMMATORY RESPONSE SYNDROME” (THE UNIVERSITY OF TOKYO, priority 2012, published 2015):
Entries after “also recorded” stand apart in the source; their conditions may differ. Ends that are not written are not given here.

Legend:
[1] = system: histone H4 on HUVEC; assay: Cytotoxic assay: suppression of histone cytotoxicity on HUVEC; assay type: cell-based, human
Procedure: (§1) Normal human umbilical vein endothelial cells (HUVECs) were cultured in EGM2 medium (Clonetics). The cells after culture were washed with PBS, added with Opti-MEM medium containing an product of incubation of activated protein C (APC), PTX3, C reactive protein (CRP) or Serum amyloid P component (SAP) with histone for 1 hr, and the cells were further cultured for 1 hr. Propidium iodide (PI) was added to the medium after culture at a final concentration of 10 μg/mL, and the cells were stained for 10 min. The cells were washed with PBS, detached and analyzed by flow cytometry.
Using each recombinant histone instead of Calf Thymus Histones, a suppressive effect of full-length PTX3 or the N-terminal domain of PTX3 on histone cytotoxicity was studied in the same manner.
Lastly, capacity of suppressing the cytotoxic activity of histone was confirmed. Since this experiment requires a certain amount of protein and an endotoxin-elimination as treatment, a protein was expressed and purified at a 500 mL culture scale, and subjected to an endotoxin-elimination treatment (FIG. 18). In the case of PTX3 N-terminal domain, about 10 mg was obtained at a 500 mL culture scale, and a loss by the endotoxin-elimination treatment was scarcely observed. […] A capacity of fragment proteins obtained at a 500 mL scale on HUVEC to suppress histone cytotoxicity was studied. […]

[2] = system: Calf Thymus Histones on HUVEC; assay: as above; assay type: cell-based, human
Procedure: After culturing for 1 hr in a medium concurrently containing 100 μg/mL Calf Thymus Histones and APC (200 nM), PTX3 (40 μg/mL), CRP (40 μg/mL) or SAP (40 μg/mL), the level of toxic activity was measured by FACS.
as §1
The histone cytotoxicity on HUVEC was evaluated by propidium iodide (PI) staining.
Lastly, capacity of suppressing the cytotoxic activity of histone was confirmed. Since this experiment requires a certain amount of protein and an endotoxin-elimination as treatment, a protein was expressed and purified at a 500 mL culture scale, and subjected to an endotoxin-elimination treatment (FIG. 18). In the case of PTX3 N-terminal domain, about 10 mg was obtained at a 500 mL culture scale, and a loss by the endotoxin-elimination treatment was scarcely observed. […] A capacity of fragment proteins obtained at a 500 mL scale on HUVEC to suppress histone cytotoxicity was studied. […] In consideration of the experiments relating to the binding and aggregation, all fragments were considered to possibly have a certain level of suppressive capacity.

[3] = system: Calf Thymus Histones; assay: Aggregation with histone, absorbance at 310 nm; assay type: binding; conditions: mixture with Calf Thymus Histones
Procedure: The lower left figure and the lower right figure show the measurement results of absorbance at 310 nm of a mixture of a wild-type or oligomer formation capacity-deficient mutant of PTX3 N-terminal domain having each concentration and 0.1 mg/mL Calf Thymus Histones at 1:1 vol.
The aggregation activity of PTX3 and other pentraxins to histone was evaluated. Calf Thymus Histones (50 μg/mL) were mixed with a PTX3 fragment or the other pentraxin at each concentration, and the absorbance at the wavelength of 310 nm was measured. Before mixing, samples were dialyzed against 4 mM CaCl2-containing TBS.

Substance	capacity to suppress cytotoxicity of recombinant histone H4 on HUVEC [1]	capacity to suppress cytotoxicity of bovine thymus-derived histone on HUVEC [2]	aggregation with Calf Thymus Histones, absorbance at 310 nm [3]	suppression of toxic activity of Calf Thymus Histones on HUVEC ([2]; 100 μg/mL Calf Thymus Histones, 40 μg/mL protein, 1 hr, PI staining, FACS)
PTXN18: E. coli-expressed fragment of about 50 amino acids of PTX3 N-terminal domain with His-tag and TEV sequence, probably amino acids 18-67 (ENLYFQGENSDDYDLMYVNLDNEIDNGLHPTEDPTPCDCGQEHSEWDKLFIMLENSQ; not fully specified; cysteine pairing not given here)	almost equivalent to that of the PTX3 N-terminal domain	almost equivalent to that of the PTX3 N-terminal domain	–	–
SAP: Serum amyloid P component, short pentraxin used as comparator [reference compound]	–	–	no aggregation capacity; also recorded: scarcely showed an aggregation activity	do not have such suppressive effect
